In one test the target is T1, cynomolgus IL-25 (cynomolgus, UniProt G7P9V9 33-176).
T1 construct: In-house production
T1 sequence: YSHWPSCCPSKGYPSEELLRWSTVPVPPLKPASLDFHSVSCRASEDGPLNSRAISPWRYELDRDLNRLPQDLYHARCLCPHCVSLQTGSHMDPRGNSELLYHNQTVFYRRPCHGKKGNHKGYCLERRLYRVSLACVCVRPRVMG
As to the kind of experiment: ELISA, plate coated with cynomolgus IL-25 (cynoIL25-his), OD450, Example 7 [panel cynoIL25-his]. Background: In an ELISA, binding on a coated surface is turned into a signal by an enzyme label.

In test [1] the target is T2, human IL-17D (human, UniProt Q8TAD2 18-202, limits assumed).
T2 sequence (looked up): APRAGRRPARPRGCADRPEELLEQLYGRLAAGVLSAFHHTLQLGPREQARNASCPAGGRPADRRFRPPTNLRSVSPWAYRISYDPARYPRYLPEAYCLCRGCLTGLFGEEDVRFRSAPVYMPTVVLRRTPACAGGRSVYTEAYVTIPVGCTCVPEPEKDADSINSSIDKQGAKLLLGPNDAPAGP
As to the kind of experiment: ELISA, plate coated with 2 µg/ml cytokine. On the procedure: (§1) MaxiSorp 96-well plates (NUNC #449824, www.thermofisher.com) were coated with 2 μg/ml human IL-17A (Cell Signaling #89285F, www.cellsignal.com), human IL-17F (Cell Signaling #8906LC, www.cellsignal.com), human IL-17B (Peprotech #200-28, www.peprotech.com), human IL-17C (R&D systems #1234-IL-025/CF, www.rndsystems.com), human IL-17D ((Peprotech #200-27, www.peprotech.com), human IL-17E (R&D systems #1258-IL-025/CF, www.rndsystems.com) in 1×PBS (50 μl/well) respectively. Plates were incubated at 4° C. overnight. Coating solution was removed and plates were washed once with 200 μl/well PBST (1×PBS with 0.05% tween-20). Then 200 μl/well blocking buffer (1×PBS with 0.05% tween-20, 3% BSA) was added and incubated at room temperature for 1 hour. Blocking buffer was removed and plates were washed three times with 200 μl/well PBST (1×PBS with 0.05% tween-20). The anti-IL-25 antibodies (produced in Example 2), were diluted to 10, 3.33, 1.11, 0.37, 0.123, 0.041, 0.0137, 0.0046, 0.0015, 0.00031, 0.000102, 0.000034 μg/ml by 1×PBS and added to the plates (50 μl/well). Plates were incubated at room temperature for 2 hours. Antibodies in the wells were removed and plates were washed three times with 200 μl/well PBST (1×PBS with 0.05% tween-20) each time. Goat anti-human IgG(H&L)-HRP secondary antibody (Jackson Immuno Research #109-035-088, www.jacksonimmuno.com) was diluted 1:5000 in 1×PBS and added to each well (50 μl/well). Plates were incubated at room temperature for 1 hour. Secondary antibody was removed and plates were washed seven times with 200 μl/well PBST (1×PBS with 0.05% tween-20) each time. 50 μl/well TMB (eBioscience #85-00-4201-56, www.ebioscience.com) was added and plates were incubated at room temperature for several minutes. Then 50 μl/well 2N H₂SO₄ was added to stop the reaction. Plates were read at 450 nm.

The target of test [2] is T3, human IL-17F (human, UniProt Q96PD4 31-163).
T3 sequence (looked up): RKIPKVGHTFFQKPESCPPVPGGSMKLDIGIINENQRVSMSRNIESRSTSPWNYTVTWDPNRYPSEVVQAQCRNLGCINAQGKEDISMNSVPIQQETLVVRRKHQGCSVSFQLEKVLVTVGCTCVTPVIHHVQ
As to the kind of experiment: ELISA, plate coated with 2 µg/ml cytokine. As to the method: as §1

In test [3] the target is T4, human IL-17B (human, UniProt Q9UHF5 21-180).
T4 sequence (looked up): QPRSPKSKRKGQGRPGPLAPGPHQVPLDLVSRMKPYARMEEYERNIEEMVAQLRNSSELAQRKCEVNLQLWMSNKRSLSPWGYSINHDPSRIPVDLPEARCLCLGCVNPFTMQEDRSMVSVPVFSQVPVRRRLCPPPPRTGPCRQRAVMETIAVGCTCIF
As to the kind of experiment: ELISA, plate coated with 2 µg/ml cytokine. On the procedure:
as §1

In test [4] the target is T5, human IL-17A (human, UniProt Q16552 24-155, limits assumed).
T5 sequence (looked up): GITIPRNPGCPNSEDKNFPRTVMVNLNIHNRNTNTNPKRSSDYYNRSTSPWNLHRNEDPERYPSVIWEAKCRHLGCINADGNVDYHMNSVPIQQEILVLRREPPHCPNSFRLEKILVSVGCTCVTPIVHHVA
As to the kind of experiment: ELISA, plate coated with 2 µg/ml cytokine. As to the method:
as §1

For the next test, the target named is T6, human IL-25 (human, UniProt Q9H293 33-177).
T6 sequence (looked up): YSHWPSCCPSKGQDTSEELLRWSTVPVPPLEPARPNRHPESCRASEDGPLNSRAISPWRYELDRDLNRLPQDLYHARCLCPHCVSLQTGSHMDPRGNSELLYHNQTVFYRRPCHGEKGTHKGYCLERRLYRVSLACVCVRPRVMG
As to the kind of experiment: cell-based or functional assay.

The target in test [5] is T2, human IL-17D. As to the kind of experiment: ELISA (FIG. 4). As to the method: as §1
The target of the next test is T7, human IL-17C (human, UniProt Q9P0M4 19-197).
T7 sequence (looked up): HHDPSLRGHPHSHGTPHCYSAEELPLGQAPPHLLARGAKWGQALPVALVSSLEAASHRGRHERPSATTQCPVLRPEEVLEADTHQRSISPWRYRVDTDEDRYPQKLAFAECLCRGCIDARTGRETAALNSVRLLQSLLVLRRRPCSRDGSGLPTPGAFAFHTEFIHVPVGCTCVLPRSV
As to the kind of experiment: ELISA (FIG. 4). As to the method: as §1

Test [6] concerns the target T3, human IL-17F. As to the kind of experiment: ELISA (FIG. 4). As to the method: as §1
The target of test [7] is T4, human IL-17B. As to the kind of experiment: ELISA (FIG. 4). On the procedure: as §1
Test [8] deals with T5, human IL-17A. As to the kind of experiment: ELISA (FIG. 4). As to the method:
as §1

B1: VH1-1 + VL2-1 (humanized anti-IL-25 antibody formed by VH1-1 and VL2-1) (antibody, V domains shown)
VH: QVTLKESGPTLVKPTQTLTLTCTFSGFSLSTSGMGLGWIRQPPGKALEWLAHIWWDDVKHYKPALKSRLTITKDTSKNQVVLTMTNVDPVDTATYYCARMGQLHYYGYDYAMDYWGQGTLVTVSS
VL: DIQLTQSPSFLSASVGDRVTITCSASSSVSYMYWYQQKPGKAPKPLIYRTSNLASGVPSRFSGSGSGTEYTLTISSMQPEDFATYYCQLYHSYPPTWTFGQGTKLEIK
On to B1, for which the half-maximal effective concentration (EC50) (as a rule, the concentration that produces a half-maximal response) with cynomolgus IL-25 turned out to be 1.51 nM. The binding result with human IL-17D [1], with human IL-17F [2], with human IL-17B [3] and in the test with human IL-17A [4] was “no binding (tested: 10 µg/ml)” in each case. For the same molecule, the “IC50, CXCL1/GROalpha production of HT-29 cells stimulated by human IL-25 [A]” value with human IL-25 stood at 7.23 nM.

B2: VH2-1 + VL1-2 (humanized anti-IL-25 antibody formed by VH2-1 and VL1-2) (antibody, V domains shown)
VH: QVTLRESGPALLKPTQTLTLTCTFSGFSLSTSGMGLGWIRQPPGKALEWLAHIWWDDVKHYKPALKSRLTISKDTSKNQVVLTITNVDPVDTATYYCARMGQLHYYGYDYAMDYWGQGTLVTVSS
VL: EIVLTQSPATLSASPGERVTISCSASSSVSYMYWYQQKPGQAPRPLIYRTSNLASGVPARFSGSGSGTDYTLTISSMEPEDFATYYCQLYHSYPPTWTFGQGTKLEIK
Turning to B2, the EC50 with cynomolgus IL-25 amounted to 1.12 nM. Besides, the binding result in the test with human IL-17D [1], in the test with human IL-17F [2], with human IL-17B [3] and with human IL-17A [4] was “no binding (tested: 10 µg/ml)” throughout.

B3: VH1-1 + VL1-2 (humanized anti-IL-25 antibody formed by VH1-1 and VL1-2) (antibody, V domains shown)
VH: QVTLKESGPTLVKPTQTLTLTCTFSGFSLSTSGMGLGWIRQPPGKALEWLAHIWWDDVKHYKPALKSRLTITKDTSKNQVVLTMTNVDPVDTATYYCARMGQLHYYGYDYAMDYWGQGTLVTVSS
VL: EIVLTQSPATLSASPGERVTISCSASSSVSYMYWYQQKPGQAPRPLIYRTSNLASGVPARFSGSGSGTDYTLTISSMEPEDFATYYCQLYHSYPPTWTFGQGTKLEIK
notes: Captured by anti-human Fc gamma antibody in SPR
Take B3: the binding result with human IL-17D [1], in the test with human IL-17F [2], in the test with human IL-17B [3] and in the test with human IL-17A [4] was “no binding (tested: 10 µg/ml)” each time. Besides, the “IC50, CXCL1/GROalpha production of HT-29 cells stimulated by human IL-25 [A]” value with human IL-25 amounted to 11.4 nM.

B4: VH2-1 + VL2-1 (humanized anti-IL-25 antibody formed by VH2-1 and VL2-1) (antibody, V domains shown)
VH: QVTLRESGPALLKPTQTLTLTCTFSGFSLSTSGMGLGWIRQPPGKALEWLAHIWWDDVKHYKPALKSRLTISKDTSKNQVVLTITNVDPVDTATYYCARMGQLHYYGYDYAMDYWGQGTLVTVSS
VL: DIQLTQSPSFLSASVGDRVTITCSASSSVSYMYWYQQKPGKAPKPLIYRTSNLASGVPSRFSGSGSGTEYTLTISSMQPEDFATYYCQLYHSYPPTWTFGQGTKLEIK
As to B4, the binding result with human IL-17D [1], with human IL-17F [2], in the test with human IL-17B [3] and in the test with human IL-17A [4] was “no binding (tested: 10 µg/ml)” each time.

B5: murine anti-IL-25 monoclonal antibody 18H3 (antibody, V domains shown)
VH: QVTLKESGPGILQPSQTLSLTCSFSGFSLSTSGMGLGWIRQPSGKGLEWLAHIWWDDVKHYKPALKSRLTISKDISSSQVFLTIASVDTADTATYYCARMGQLHYYGYDYAMDYWGQGTSVTVSS
VL: QIVLTQSPAIMSASPGEKVTISCSASSSVSYMYWYQQKPGSSPKPWIYRTSNLASGVPARFSGSGSGTSYSLTISSMEAEDAATYYCQLYHSYPPTWTFGGGTKLEIK
notes: also called parental antibody; parental murine mAb
As for B5, the binding result in the test with human IL-17D [5], with human IL-17C, with human IL-17F [6], in the test with human IL-17B [7] and in the test with human IL-17A [8] was “no binding” in each case. The molecule further registered an EC50 with cynomolgus IL-25 of 2.35 nM.
